Reference: US10500249B2, “Compositions and methods for preventing or treating diseases, conditions, or processes characterized by aberrant fibroblast proliferation and extracellular matrix deposition” (MOERAE MATRIX, INC., priority 2014, dated 2019)

Columns and labels:
Assay in all cases: Kinase Profiling Assay
Assay type in all cases: biochemical
Settings in all cases: 100 μM
CDK5/p35 (h) = molecular target: T1, CDK5/p35 (h) (Homo sapiens, UniProt Q00535)
T1 construct: purchased Millipore
Protocol: (§1) Every kinase activity measurement was conducted in duplicate.
(§2) Specifically, in these assays, a positively charged substrate is phosphorylated with a radiolabeled phosphate group from an ATP if the kinase is not inhibited by an inhibitor peptide. The positively charged substrate then is attracted to a negatively charged filter membrane, quantified with a scintillation counter, and compared to a 100% activity control.
(§3) In addition to determining the IC50 of the compound, the specificity of MK2 inhibitory peptides was assessed by examining activities of all 266 human kinases available for testing in the Millipore kinase profiling service (Table 1).

CDK7/cyclinH/MAT1 (h) = molecular target: T2, CDK7/cyclinH/MAT1 (h) (Homo sapiens, UniProt P50613)
T2 construct: purchased Millipore
T2 sequence (P50613 whole entry): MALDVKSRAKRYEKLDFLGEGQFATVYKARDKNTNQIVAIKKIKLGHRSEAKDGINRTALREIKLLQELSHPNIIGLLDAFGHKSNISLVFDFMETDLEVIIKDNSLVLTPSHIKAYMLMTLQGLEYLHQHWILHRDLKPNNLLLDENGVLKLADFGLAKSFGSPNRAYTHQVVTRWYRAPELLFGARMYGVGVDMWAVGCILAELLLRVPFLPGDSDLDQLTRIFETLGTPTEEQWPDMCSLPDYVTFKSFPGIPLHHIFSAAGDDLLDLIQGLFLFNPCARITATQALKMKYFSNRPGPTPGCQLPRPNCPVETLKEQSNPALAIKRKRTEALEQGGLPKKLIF
T2 sequence (P51946 whole entry partner): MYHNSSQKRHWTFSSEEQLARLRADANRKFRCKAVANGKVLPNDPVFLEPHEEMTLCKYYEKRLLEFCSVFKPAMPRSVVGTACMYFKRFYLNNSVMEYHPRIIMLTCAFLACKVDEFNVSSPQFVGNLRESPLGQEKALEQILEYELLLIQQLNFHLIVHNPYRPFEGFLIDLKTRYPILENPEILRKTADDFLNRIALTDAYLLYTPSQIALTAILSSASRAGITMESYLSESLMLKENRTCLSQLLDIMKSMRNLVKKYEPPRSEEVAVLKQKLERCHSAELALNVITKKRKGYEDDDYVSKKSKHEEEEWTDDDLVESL
T2 sequence (P51948 whole entry partner): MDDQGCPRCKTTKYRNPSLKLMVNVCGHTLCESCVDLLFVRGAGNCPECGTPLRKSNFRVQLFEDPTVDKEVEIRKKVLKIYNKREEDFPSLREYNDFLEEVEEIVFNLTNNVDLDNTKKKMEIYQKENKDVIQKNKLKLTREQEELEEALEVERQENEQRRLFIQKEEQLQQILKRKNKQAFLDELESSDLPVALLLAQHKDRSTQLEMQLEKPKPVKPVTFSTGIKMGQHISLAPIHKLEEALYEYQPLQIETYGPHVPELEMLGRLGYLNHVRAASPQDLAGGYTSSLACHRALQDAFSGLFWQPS
Protocol: as §1, §2, §3

EphA8 (h) = molecular target: T3, EphA8 (h) (Homo sapiens, UniProt P29322)
T3 sequence (P29322 28-1005): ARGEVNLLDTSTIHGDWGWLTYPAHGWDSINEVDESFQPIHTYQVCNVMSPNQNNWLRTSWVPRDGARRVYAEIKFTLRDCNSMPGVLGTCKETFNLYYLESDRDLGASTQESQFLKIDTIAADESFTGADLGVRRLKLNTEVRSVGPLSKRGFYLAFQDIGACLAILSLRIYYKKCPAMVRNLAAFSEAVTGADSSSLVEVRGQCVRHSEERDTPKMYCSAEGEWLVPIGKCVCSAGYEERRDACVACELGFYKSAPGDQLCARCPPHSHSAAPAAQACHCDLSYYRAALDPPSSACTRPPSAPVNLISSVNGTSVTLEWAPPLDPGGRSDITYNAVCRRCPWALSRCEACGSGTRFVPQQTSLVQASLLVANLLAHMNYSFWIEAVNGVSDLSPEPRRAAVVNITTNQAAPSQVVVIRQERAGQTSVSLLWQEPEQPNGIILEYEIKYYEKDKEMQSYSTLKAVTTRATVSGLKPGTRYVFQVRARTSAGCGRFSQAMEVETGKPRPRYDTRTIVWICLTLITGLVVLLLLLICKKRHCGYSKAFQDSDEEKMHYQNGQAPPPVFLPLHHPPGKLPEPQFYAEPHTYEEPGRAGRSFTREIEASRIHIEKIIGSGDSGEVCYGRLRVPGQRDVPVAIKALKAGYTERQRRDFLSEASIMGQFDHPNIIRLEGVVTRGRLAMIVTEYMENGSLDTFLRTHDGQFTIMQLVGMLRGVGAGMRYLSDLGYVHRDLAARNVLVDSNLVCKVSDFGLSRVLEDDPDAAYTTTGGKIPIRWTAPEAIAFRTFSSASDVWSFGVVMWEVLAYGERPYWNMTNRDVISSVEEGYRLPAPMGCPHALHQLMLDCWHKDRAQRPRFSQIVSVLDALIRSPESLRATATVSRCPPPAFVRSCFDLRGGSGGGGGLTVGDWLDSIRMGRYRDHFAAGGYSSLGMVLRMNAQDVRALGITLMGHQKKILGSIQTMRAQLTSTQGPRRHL
Protocol: as §1, §2, §3

Fes (h) = Fes (h) (Homo sapiens, UniProt P07332)
Sequence of Fes (h) (P07332 whole entry): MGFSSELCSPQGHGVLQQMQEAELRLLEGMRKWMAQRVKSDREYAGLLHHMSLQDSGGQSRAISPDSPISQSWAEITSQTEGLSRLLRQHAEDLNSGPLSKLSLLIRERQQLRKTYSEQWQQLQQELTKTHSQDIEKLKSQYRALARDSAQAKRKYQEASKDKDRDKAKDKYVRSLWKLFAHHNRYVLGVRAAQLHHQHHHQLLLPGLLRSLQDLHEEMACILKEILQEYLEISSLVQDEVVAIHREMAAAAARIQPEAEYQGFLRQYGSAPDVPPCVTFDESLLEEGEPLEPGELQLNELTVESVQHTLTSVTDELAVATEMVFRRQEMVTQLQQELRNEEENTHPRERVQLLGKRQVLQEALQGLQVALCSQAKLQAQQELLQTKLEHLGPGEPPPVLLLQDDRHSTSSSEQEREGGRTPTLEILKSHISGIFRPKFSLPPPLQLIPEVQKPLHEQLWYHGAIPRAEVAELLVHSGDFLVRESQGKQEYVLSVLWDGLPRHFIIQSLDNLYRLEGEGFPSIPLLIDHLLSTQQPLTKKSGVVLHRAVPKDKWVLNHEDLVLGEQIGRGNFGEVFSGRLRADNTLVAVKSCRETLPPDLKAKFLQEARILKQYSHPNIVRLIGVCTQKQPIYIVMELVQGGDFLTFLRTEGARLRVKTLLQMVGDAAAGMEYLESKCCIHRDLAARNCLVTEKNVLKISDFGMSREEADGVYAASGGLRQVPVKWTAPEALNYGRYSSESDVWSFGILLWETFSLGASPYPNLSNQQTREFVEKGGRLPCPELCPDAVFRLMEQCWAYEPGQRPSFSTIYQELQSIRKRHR
Protocol: as §1, §2, §3

IKKα (h) = molecular target: T4, IKKα (h) (Homo sapiens, UniProt O15111)
T4 construct: purchased Millipore
T4 sequence (O15111 1-745): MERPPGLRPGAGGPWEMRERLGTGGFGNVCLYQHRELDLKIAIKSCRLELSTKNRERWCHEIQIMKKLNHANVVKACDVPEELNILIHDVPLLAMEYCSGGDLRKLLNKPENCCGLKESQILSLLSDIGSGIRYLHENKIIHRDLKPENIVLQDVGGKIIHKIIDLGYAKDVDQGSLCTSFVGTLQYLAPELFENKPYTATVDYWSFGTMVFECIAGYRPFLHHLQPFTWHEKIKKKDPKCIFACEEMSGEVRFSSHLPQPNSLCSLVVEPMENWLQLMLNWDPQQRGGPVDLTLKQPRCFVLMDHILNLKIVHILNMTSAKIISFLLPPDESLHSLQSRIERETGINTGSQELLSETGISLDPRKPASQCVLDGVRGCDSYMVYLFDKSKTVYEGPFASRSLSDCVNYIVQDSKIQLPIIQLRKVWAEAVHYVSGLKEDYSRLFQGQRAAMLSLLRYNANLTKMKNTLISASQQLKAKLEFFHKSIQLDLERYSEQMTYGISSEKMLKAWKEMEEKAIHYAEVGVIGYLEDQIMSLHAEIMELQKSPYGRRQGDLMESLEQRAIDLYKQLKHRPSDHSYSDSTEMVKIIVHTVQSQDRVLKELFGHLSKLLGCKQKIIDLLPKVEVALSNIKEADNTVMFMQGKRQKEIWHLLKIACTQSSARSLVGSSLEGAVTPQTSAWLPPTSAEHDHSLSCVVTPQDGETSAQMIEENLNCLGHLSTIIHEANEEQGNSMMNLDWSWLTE
Protocol: as §1, §2, §3

IRAK1 (h) = molecular target: T5, IRAK1 (h) (Homo sapiens, UniProt P51617)
T5 construct: purchased Millipore
T5 sequence (P51617 whole entry): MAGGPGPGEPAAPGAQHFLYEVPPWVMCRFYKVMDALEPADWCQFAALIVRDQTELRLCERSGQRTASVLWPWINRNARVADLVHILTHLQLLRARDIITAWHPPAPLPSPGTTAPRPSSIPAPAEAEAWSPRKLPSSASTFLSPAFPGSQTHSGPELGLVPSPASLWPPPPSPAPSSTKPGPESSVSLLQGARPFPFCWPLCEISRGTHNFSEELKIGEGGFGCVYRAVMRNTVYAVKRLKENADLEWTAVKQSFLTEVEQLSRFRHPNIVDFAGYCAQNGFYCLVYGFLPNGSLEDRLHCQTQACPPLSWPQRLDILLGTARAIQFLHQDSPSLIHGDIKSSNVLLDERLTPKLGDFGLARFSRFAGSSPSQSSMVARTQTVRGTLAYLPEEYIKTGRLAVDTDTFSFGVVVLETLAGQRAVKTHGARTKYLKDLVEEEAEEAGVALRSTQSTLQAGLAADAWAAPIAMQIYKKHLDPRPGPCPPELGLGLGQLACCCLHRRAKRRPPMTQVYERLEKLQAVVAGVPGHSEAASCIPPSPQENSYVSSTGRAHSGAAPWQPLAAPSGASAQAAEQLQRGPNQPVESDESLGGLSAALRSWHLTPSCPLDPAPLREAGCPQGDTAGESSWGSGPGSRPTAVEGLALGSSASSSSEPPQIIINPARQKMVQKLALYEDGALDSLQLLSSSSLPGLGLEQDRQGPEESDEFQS
Protocol: as §1, §2, §3

PDGFRα (h) = molecular target: T6, PDGFRα (h) (Homo sapiens, UniProt P16234)
T6 construct: purchased Millipore
T6 sequence (P16234 24-1089): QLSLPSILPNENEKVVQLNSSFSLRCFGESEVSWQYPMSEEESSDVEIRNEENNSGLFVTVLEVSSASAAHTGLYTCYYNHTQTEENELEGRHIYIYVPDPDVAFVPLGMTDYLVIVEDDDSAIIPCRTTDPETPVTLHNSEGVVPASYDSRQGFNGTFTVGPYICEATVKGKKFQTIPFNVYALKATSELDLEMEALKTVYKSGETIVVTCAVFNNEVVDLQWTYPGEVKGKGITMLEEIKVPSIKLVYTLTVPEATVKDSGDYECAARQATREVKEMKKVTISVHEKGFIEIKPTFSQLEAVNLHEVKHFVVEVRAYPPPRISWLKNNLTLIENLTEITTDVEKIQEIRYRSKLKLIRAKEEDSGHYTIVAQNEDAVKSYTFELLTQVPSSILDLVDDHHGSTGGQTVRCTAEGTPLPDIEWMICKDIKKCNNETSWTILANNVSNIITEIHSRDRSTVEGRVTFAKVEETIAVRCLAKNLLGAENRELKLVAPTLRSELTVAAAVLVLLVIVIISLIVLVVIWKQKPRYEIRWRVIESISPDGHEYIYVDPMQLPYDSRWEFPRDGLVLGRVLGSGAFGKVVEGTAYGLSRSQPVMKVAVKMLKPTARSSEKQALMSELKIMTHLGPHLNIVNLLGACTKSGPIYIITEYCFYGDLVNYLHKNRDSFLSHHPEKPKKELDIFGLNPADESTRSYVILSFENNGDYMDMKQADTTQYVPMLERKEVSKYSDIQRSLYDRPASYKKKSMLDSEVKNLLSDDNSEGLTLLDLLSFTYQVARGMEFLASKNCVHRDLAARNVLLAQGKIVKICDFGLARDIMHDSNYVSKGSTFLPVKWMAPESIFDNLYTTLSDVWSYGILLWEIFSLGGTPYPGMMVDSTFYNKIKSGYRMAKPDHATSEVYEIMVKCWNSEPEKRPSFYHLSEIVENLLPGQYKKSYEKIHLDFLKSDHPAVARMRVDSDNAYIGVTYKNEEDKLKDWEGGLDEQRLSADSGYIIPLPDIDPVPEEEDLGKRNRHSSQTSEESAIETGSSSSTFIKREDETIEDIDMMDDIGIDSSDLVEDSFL
Protocol: as §1, §2, §3

PKCζ (h) = molecular target: T7, PKCζ (h) (Homo sapiens, UniProt Q05513)
T7 sequence (Q05513 1-592): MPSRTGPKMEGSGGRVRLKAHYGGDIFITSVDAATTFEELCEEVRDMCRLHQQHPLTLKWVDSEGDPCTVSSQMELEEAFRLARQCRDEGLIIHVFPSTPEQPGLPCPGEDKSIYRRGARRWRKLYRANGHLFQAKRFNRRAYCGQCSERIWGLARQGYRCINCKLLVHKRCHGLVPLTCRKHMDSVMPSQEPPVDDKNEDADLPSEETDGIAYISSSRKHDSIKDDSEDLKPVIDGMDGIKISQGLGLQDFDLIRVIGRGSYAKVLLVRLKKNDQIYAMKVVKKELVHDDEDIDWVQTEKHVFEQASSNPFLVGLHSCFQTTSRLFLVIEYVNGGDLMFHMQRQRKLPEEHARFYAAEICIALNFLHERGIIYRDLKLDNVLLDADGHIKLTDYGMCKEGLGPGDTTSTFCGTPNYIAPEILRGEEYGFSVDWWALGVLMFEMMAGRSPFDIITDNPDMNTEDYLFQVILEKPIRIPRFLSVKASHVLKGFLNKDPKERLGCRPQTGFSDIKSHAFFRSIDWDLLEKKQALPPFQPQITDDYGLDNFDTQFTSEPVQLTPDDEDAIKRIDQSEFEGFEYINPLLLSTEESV
Protocol: as §1, §2, §3

T1 sequence (Q00535 whole entry): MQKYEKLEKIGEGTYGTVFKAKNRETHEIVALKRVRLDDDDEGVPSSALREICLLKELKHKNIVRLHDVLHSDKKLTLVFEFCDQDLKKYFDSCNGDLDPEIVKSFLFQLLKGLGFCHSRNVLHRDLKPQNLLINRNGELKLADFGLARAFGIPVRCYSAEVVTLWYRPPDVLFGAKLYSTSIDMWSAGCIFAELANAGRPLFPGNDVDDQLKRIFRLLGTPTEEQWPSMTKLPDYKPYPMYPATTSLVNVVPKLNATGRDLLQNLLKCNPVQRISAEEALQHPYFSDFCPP
T1 sequence (Q15078 2-307 partner limits assumed): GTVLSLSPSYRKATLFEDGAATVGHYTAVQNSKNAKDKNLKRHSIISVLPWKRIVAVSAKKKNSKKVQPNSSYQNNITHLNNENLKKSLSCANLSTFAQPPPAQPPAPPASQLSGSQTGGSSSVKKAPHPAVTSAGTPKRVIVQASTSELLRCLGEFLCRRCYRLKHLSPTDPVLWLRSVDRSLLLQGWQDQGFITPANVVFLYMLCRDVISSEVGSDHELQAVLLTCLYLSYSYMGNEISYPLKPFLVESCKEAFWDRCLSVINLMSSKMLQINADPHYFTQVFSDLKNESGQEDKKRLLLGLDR

Sequence | % activity (CDK5/p35 (h)) [%] | % activity (CDK7/cyclinH/MAT1 (h)) [%] | % activity (EphA8 (h)) [%] | % activity (Fes (h)) [%] | % activity (IKKα (h)) [%] | % activity (IRAK1 (h)) [%] | % activity (PDGFRα (h)) [%] | % activity (PKCζ (h)) [%]
FAKLAARLYRKALARQLGVAA [MMI-0300] | 79 | 65 | 93 | 20 | 93 | 95 | 65 | 81
HRRIKAWLKKIKALARQLGVAA (Mammalian) [MMI-0500] | 59 | 15 | 337 | 23 | 50 | 5 | 40 | 7
KAFAKLAARLYRKALARQLGVAA [MMI-0400] | 76 | 47 | 146 | 16 | 87 | 93 | 40 | 75
YARAAARQARAKALNRQLGVA (Mammalian) [MMI-0200] | 92 | 67 | 133 | 74 |  | 101 | 108 | 98
